Source: paper PMC6152284, “Cloning and Characterization of Two Iridoid Synthase Homologs from Swertia Mussotii” (Molecules : A Journal of Synthetic Chemistry and Natural …, 2017)

B1: SmIS2 (Swertia mussotii) (protein)
chain: MSWWWTGAVAAAREKVYDERPKTSPSVALIIGVTGIVGNSLADILPLSDTPGGPWKVYGVARRPRPAWSEDHPVEYIQLDVYNAKETQSKLSPLTDITHIFWTTWANRPTEAECCQVNGAMLQNVIDAVLPNAPNLSHICIQTGHKHYIGPFETFGKIKPHETPFIEDVPRLDVPNFYYTLEDITLETCKKKEGLTWSVHRPAVIFGFSPYSMMNLIGSLCVYAAICKHENVPFTYPGTKGAWNCYSVASDADLIAEHQIWASVDPYAKNEAYNCSNGDLFKWKSLWKVLAEQFDLEYVEFDENQDYVSLAERMKDKGPVWDEIVKQNKLTPTKLEEVATFWFADVIFSGECMLDSMSKSKEHGFLGFRDTTKSLLSVVGKMKAHKIVP
notes: pET-28a, 6-His tags at N- and C-terminus (~46 kDa); E. coli BL21(DE3), purified
B2: SmIS1 (Swertia mussotii) (protein)
chain: MSWWWKRSVQAQNLPEKNQPNGVAETAGRYESVALVVGVTGIVGSSLAQVLKLPDTPGGPWKVYGVARRPCPAWLAKFHVEYIQCDVSNTEEAKTKLSPLKDVTHIFYVSWIGSEDCETNAVMFKNILYNIIPVAPNLKHISLQTGSKHYFGIFEEGSEAVPHESPYTEDLPRLNIPNFYHDLEDILFEETAKHGLTWCVQRPALIFGFSPCSLMNIVSTLSIYATICKHEKKPLVYPGSKASWNCYVDGADADLAAEHHIWAAVDPKAKNQVFNVKNGDVFKWKNVWKMLADEFEMEMVGYIEGNEQVSMAELMKDKDGVWDEIVKKHKLEDTKLKEIAAFWFADIAFSCVDLVMSVTKSREFGFLGFRDSMKSFKSCIHKMRDFKFIP
notes: pETMALc-H, N-terminal MBP fusion with 10 His (~88 kDa); E. coli BL21(DE3), purified

Legend:
purified protein [1] = substrate: NC(=O)C1=CN([C@@H]2O[C@H](COP(=O)(O)OP(=O)(O)OC[C@H]3O[C@@H](n4cnc5c(N)ncnc54)[C@H](OP(=O)(O)O)[C@@H]3O)[C@@H](O)[C@H]2O)C=CC1; assay: purified protein; type: biochemical, Swertia mussotii; details: co-substrate 8-oxogeranial, 20 mM MOPS pH 7.0, 40 °C, varied: cofactor
purified protein [2] = substrate: C/C(C=O)=C\CC/C(C)=C/C=O; assay: purified protein; type: biochemical, Swertia mussotii; details: co-substrate NADPH, 20 mM MOPS pH 7.0, 40 °C, substrate stock contained 8-oxoneral isomer

Protein | Km (purified protein [1]; His-tagged) [µM] | kcat (purified protein [1]; His-tagged) [s⁻¹] | kcat/Km (purified protein [1]; His-tagged) [M⁻¹ s⁻¹] | Km (purified protein [2]; His-tagged) [µM] | kcat (purified protein [2]; His-tagged) [s⁻¹] | kcat/Km (purified protein [2]; His-tagged) [M⁻¹ s⁻¹] | Km (purified protein [1]; MBP fusion) [µM] | kcat (purified protein [1]; MBP fusion) [s⁻¹] | kcat/Km (purified protein [1]; MBP fusion) [M⁻¹ s⁻¹] | Km (purified protein [2]; MBP fusion) [µM] | kcat (purified protein [2]; MBP fusion) [s⁻¹] | kcat/Km (purified protein [2]; MBP fusion) [M⁻¹ s⁻¹]
B1 | 41.83 ± 7.2 | 0.026 ± 0.01 | 628 ± 105 | 54.37 ± 4.29 | 0.034 ± 0.001 | 629 ± 75.9 |  |  |  |  |  | 
B2 |  |  |  |  |  |  | 77.94 ± 6.03 | 0.135 ± 0.01 | 1732 ± 11.3 | 7.29 ± 1.59 | 0.11 ± 0.007 | 15600 ± 4350
